Measured values: PMC4485828 (Oncoimmunology, 2015)

Tests used:
SEC [1] = target: the molecule itself; assay: SEC
SEC [2] = assay: SEC

B1: GD2xCD3-HDD bispecific antibody dimer (GD2xCD3 tsc-BsAb with the HNF1α dimerization domain at the C-terminus) (bispecific antibody)
chain: QVQLQQSGPELVKPGASVKISCKTSGYKFTEYTMHWVKQSHGKCLEWIGGINPNNGGTNYNQKFKGKATLTVDKSSSTAYMELRSLTSEDSAVYYCARDTTVPYAYWGQGTTVTVSSGGGGSGGGGSGGGGSDIELTQSPAIMSASPGEKVTMTCSASSSISYMHWYQQKPGTSPKRWIYDTSKLASSVPARFSGSGSGTSYSLTISSMEAEDAATYYCHQRSSYPLTFGCGTKLEIKRASTKGPGGGGSGGGGSGGGGSQVQLVQSGGGVVQPGRSLRLSCKASGYTFTRYTMHWVRQAPGKGLEWIGYINPSRGYTNYNQKFKDRFTISRDNSKNTAFLQMDSLRPEDTGVYFCARYYDDHYCLDYWGQGTPVTVSSGGGGSGGGGSGGGGSDIQMTQSPSSLSASVGDRVTITCSASSSVSYMNWYQQTPGKAPKRWIYDTSKLASGVPSRFSGSGSGTDYTFTISSLQPEDIATYYCQQWSSNPFTFGQGTKLQITRTPLGDTTHTSGMVSKLSQLQTELLAALLESGLSKEALIQALGEGSGGAP
stoichiometry N (SEC [1]): 2 | percent dimeric (purity by HPLC-SEC) (SEC [2]): 97%
